Results on 3 substances are retold here after article PMC9503621.

The target of experiment [1] is large (50S) ribosomal subunit from Staphylococcus aureus (S. aureus) (UniProt Q2FW16).
Experiment [2] has the same target. The source holds these as a separate data set.

UniProt Q2FW16, sequence (Q2FW16 whole entry, looked up): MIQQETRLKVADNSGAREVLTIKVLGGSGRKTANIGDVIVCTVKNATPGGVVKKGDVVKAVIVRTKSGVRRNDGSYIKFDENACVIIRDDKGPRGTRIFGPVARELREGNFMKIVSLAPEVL

As for “Ribosomal silencing factor S (RsfS) from Staphylococcus aureus, wild type (natural protein)”, in experiment [1], the Mg2+ concentration at which half of the vacant 70S ribosomes are dissociated into 50S + 30S (sucrose gradient profiles, 2X molar excess of RsfS, 3-5 mM Mg2+) was found to be 5 mM Mg2+ and the anti-association activity at 4 mM Mg2+ (relative amount of dissociated 50S + 30S subunits, sucrose gradient profiles) turned out to be 100 % activity. The substance also displayed an efficiency of translation inhibition in the S. aureus cell-free system at 6 mM Mg2+ (370 mM K+) in experiment [2] of 80%.

“RsfS E70A mutant from Staphylococcus aureus (natural protein)”: in experiment [1], the Mg2+ concentration at which half of the vacant 70S ribosomes are dissociated into 50S + 30S (sucrose gradient profiles, 2X molar excess of RsfS, 3-5 mM Mg2+) is 4.4 mM Mg2+ and the loss of anti-association activity at 4 mM Mg2+ (relative amount of dissociated 50S + 30S subunits, sucrose gradient profiles) (% of activity lost) is 20. In experiment [2], this substance gave an efficiency of translation inhibition in the S. aureus cell-free system at 6 mM Mg2+ (370 mM K+) of 70%.

For the substance “RsfS Y98A mutant from Staphylococcus aureus (natural protein)”, in experiment [1], the Mg2+ concentration at which half of the vacant 70S ribosomes are dissociated into 50S + 30S (sucrose gradient profiles, 2X molar excess of RsfS, 3-5 mM Mg2+) amounted to 3.4 mM Mg2+ and the loss of anti-association activity at 4 mM Mg2+ (relative amount of dissociated 50S + 30S subunits, sucrose gradient profiles) (% of activity lost) came to 80. The same substance showed an efficiency of translation inhibition in the S. aureus cell-free system at 6 mM Mg2+ (370 mM K+) in experiment [2] of 35%.
